Consider 26 molecules from patent US20220064329A1 (Novo Nordisk, published 2022).

Residue numbers refer to the chain shown, from its start. Names may count otherwise.

The chains are these.
T1: recombinant human activated Factor VII (FVIIa) (human, UniProt P08709 61-212; P08709 213-466, ten glutamate residues of the Gla domain may be gamma-carboxylated)
T1 construct: chains tethered by a disulfide bond; also called Factor VIIa; rFVIIa
T1 sequence 1: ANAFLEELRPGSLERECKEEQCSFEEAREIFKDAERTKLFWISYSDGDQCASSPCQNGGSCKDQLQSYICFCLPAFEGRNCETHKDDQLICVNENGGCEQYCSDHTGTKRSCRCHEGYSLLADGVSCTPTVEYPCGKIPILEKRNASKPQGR
T1 sequence 2: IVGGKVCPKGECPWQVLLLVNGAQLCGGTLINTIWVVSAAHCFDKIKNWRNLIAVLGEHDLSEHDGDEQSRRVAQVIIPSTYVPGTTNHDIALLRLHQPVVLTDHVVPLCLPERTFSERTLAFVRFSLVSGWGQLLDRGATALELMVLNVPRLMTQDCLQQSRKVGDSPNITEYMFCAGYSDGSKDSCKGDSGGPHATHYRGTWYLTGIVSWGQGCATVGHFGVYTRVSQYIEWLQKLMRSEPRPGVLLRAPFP

T2: recombinant human activated Factor VII (FVIIa) (human, UniProt P08709 61-212; P08709 213-466, Gla domain: ten glutamate residues may be gamma-carboxylated)
T2 sequence 1: T1 sequence 1
T2 sequence 2: T1 sequence 2

B1: VH SEQ ID NO 650 / VL SEQ ID NO 390 (antibody, IgG4, V domains shown)
VH: QVQLQESGPGLVKPSQTLSLTCTVSGYSISSDSAWSWIRQPPGKKLEWIGYIQYSGSTNYNPSLKSRVTISRDTSKNQFSLKLSSVTAADTAVYYCARSVNYYGNSFAVGPWGQGTLVTVSS
VL: EIVLTQSPATLSLSPGERATLSCRASQGVSDYLAWYQQKPGEAPRLLIKYASQPATGIPARFSGSGSGTDFTLTISSLEPEDFAVYYCQNGHSFPLTFGQGTKLEIK
notes: humanized 11F2; IgG4 S228P/kappa
B2: VH SEQ ID NO 514 / VL SEQ ID NO 326 (antibody, IgG4, V domains shown)
VH: B1 VH with K13E, Q16D, T23A, S30T, I70M, A89L, P111Y
VL: B1 VL with V29I, A34H, A51T, A84G, Q100A, I106L
notes: as for B1
B3: VH SEQ ID NO 514 / VL SEQ ID NO 342 (antibody, IgG4, V domains shown)
VH: B1 VH with K13E, Q16D, T23A, S30T, I70M, A89L, P111Y
VL: B1 VL with V29I, A34H, E42Q, A51T, T69R, Q100A, I106L
notes: as for B1
B4: VH SEQ ID NO 650 / VL SEQ ID NO 470 (antibody, IgG4, V domains shown)
VH: B1 VH
VL: B1 VL with A34H, E42Q
notes: as for B1
B5: VH SEQ ID NO 650 / VL SEQ ID NO 502 (antibody, IgG4, V domains shown)
VH: B1 VH
VL: B1 VL with A34H, E42Q, A51T
notes: as for B1
B6: VH SEQ ID NO 650 / VL SEQ ID NO 406 (antibody, IgG4, V domains shown)
VH: B1 VH
VL: B1 VL with E42Q, Q100A
notes: as for B1
B7: VH SEQ ID NO 650 / VL SEQ ID NO 398 (antibody, IgG4, V domains shown)
VH: B1 VH
VL: B1 VL with A51T
notes: as for B1
B8: VH SEQ ID NO 650 / VL SEQ ID NO 422 (antibody, IgG4, V domains shown)
VH: B1 VH
VL: B1 VL with E42Q, N90Q
notes: as for B1
B9: VH SEQ ID NO 650 / VL SEQ ID NO 438 (antibody, IgG4, V domains shown)
VH: B1 VH
VL: B1 VL with E42Q, F83V
notes: as for B1
B10: VH SEQ ID NO 650 / VL SEQ ID NO 486 (antibody, IgG4, V domains shown)
VH: B1 VH
VL: B1 VL with A34H, E42Q, A84G
notes: as for B1
B11: VH SEQ ID NO 650 / VL SEQ ID NO 462 (antibody, IgG4, V domains shown)
VH: B1 VH
VL: B1 VL with A34H, E42Q, Q100A
notes: as for B1
B12: VH SEQ ID NO 650 / VL SEQ ID NO 430 (antibody, IgG4, V domains shown)
VH: B1 VH
VL: B1 VL with E42Q, A84G
notes: as for B1
B13: VH SEQ ID NO 650 / VL SEQ ID NO 446 (antibody, IgG4, V domains shown)
VH: B1 VH
VL: B1 VL with E42Q, A51T
notes: as for B1
B14: VH SEQ ID NO 650 / VL SEQ ID NO 494 (antibody, IgG4, V domains shown)
VH: B1 VH
VL: B1 VL with A34H, E42Q, F83V
notes: as for B1
B15: VH SEQ ID NO 650 / VL SEQ ID NO 414 (antibody, IgG4, V domains shown)
VH: B1 VH
VL: B1 VL with E42Q
notes: as for B1
B16: VH SEQ ID NO 650 / VL SEQ ID NO 454 (antibody, IgG4, V domains shown)
VH: B1 VH
VL: B1 VL with A34H
notes: as for B1
B17: VH SEQ ID NO 650 / VL SEQ ID NO 478 (antibody, IgG4, V domains shown)
VH: B1 VH
VL: B1 VL with A34H, E42Q, N90Q
notes: as for B1
B18: mAb7250 (antibody, V domains shown)
VH: EVQLVESGGGLVKPGGSLRLSCAASGFTFTSYSMSWVRQAPGKGLEWVSSISSRSSYICYADSVKGRFTISRDNAKNSLYLQMNSLRAEDTAVYYCAREGDTGSIGGDYMDVWGKGTTVTVSS
VL: not shown
B19: mAb0013 (antibody, V domains shown)
VH: QIQLVQSGPELKKPGETVKISCKASGYTFTDYSIQWVKQAPGKGLKWMGWINTETGKPSYADDLKGRSAFSLETSGSTAYLQISNLKNEDMATYFCVRDDYYGREDYWGQGTTLTVSS
VL: DIVMTQSPSSLTVTAGEKVTVSCKSSQSLLNSGDQKNYLTWYQQKPGQPPKLLIYWASTRESGVPDRFTGSGSGTDFTLTISSVQAEDLAVYYCQNDFSYPYTFGGGTKLEIK
B20: mAb0701 (antibody, V domains shown)
VH: QIQLQQSGPELVKPGTSVKMACKASDYTFTDYYLHWVKQRPGQGLEWIGWIYPGSGNTKFNEKFKGKATLTVDTSSSTAYMHLSSLTSDDTAVYFCTRVLGRGAMDYWGQGTSVTVSS
VL: DIVLTQSPPSLAVSLGQRAIISCKASQSVSFAGTSLMYWYQQKPGQQPKVLMYRASNLEAGVPIRFSGSGSGTDFTLNIHPVEEDDVATYYCQQSREYPYTFGGGTKLEIK
B21: mAb0137(OA) (antibody, human IgG4 S228P, kappa)
heavy: not shown
light: EIVLTQSPATLSLSPGERATLSCRASQGISDYLHWYQQKPGEAPRLLIKYTSQPATGIPARFSGSGSGTDFTLTISSLEPEDVGVYYCQNGHSFPLTFGAGTKLELKRTVAAPSVFIFPPSDEQLKSGTASVVCLLNNFYPREAKVQWKVDNALQSGNSQESVTEQDSKDSTYSLSSTLTLSKADYEKHKVYACEVTHQGLSSPVTKSFNRGEC
chain: VESKYGPPCPPCPAPEFLGGPSVFLFPPKPKDTLMISRTPEVTCVVVDVSQEDPEVQFNWYVDGVEVHNAKTKPREEQFNSTYRVVSVLTVLHQDWLNGKEYKCKVSNKGLPSSIEKTISKAKGQPREPQVYTLPPSQEEMTKNQVSLTCLVKGFYPSDIAVEWESNGQPENNYKTTPPVLDSDGSFLLYSKLTVDKSRWQEGNVFSCSVMHEALHNHYTQKSLSLSLGK
B22: mAb0139(OA) (antibody, human IgG4 S228P, kappa)
heavy: not shown
light: B21 light
chain: B21 chain
B23: mAb0109 (antibody, human IgG4 S228P, kappa, V domains shown)
VH: DVQLQESGPGLVEPSQSLSLTCTVTGYSITSDSAWSWIRQFPGNKLEWMGYIQYSGSTNYNPSLKSRISVTRDTSKNQFFLRLSSVTAEDTATYYCTRSVNYYGNSFAVGYWGQGTSVTVSS
VL: EIVLTQSPATLSLSPGERATLSCRASQGISDYLHWYQQKPGEAPRLLIKYTSQPATGIPARFSGSGSGTDFTLTISSLEPEDVGVYYCQSGHSFPLTFGAGTKLELKR
notes: humanized 11F2 variant, first round
B24: mAb0110 (antibody, human IgG4 S228P, kappa, V domains shown)
VH: B1 VH with Q1D, K45G, A108W, G110D
VL: DIVMTQSPATLSVTAGDRVSLSCRASQGISDYLHWYQQKSHESPRLLIKYTSQPVSGIPSRFSGSGSGSEFTLSINSVEPEDVGVYYCQNGHSFPLTFGAGTKLELKR
notes: as for B23
B25: mAb0112 (antibody, human IgG4 S228P, kappa, V domains shown)
VH: B1 VH with Q1D, K13E, S30T, P41F, I49M, A89E, A108W, P111Y, L117S
VL: B23 VL with S90N
notes: as for B23
B26: mAb0113 (antibody, human IgG4 S228P, kappa)
heavy: not shown
light: B21 light
notes: as for B23

The target of one assay is T1, recombinant human activated Factor VII …. The assay is described as follows: BLI (Fortebio). For orientation: BLI is a label-free optical method that tracks binding on a fibre tip over time.
For B1, the Kd (usually a measure of binding affinity in units of concentration) stood at 99 nM. The same measure, in the same setting: next, B2: 0.75 nM; B3: 1.3 nM; B4: 1.6 nM. On the same count and under the same terms, next, B5: 1.3 nM.

For B6, the Kd was found to be 180 nM. As to B7, the Kd worked out at 55 nM. Turning to B8, the Kd was 2600 nM. Still for that read-out and setting: next, B9: 28 nM; B10: 1.3 nM; B11: 1.6 nM.

Consider B12, for which the Kd turned out to be 28 nM. In the case of B13, the Kd came out at 39 nM. Regarding B14, the Kd amounted to 1.6 nM. Still for that read-out and setting: next, B15: 84 nM. Take B16: the Kd stood at 1.4 nM. Same read-out and setting: next, B17: 3 nM.

A further assay deals with T2, recombinant human activated Factor VII …. Description: cell-based or functional assay.
For B18, the “AT inhibition (kinh %)” value worked out at 23% and the “TGT activity (% FVIIa)” value was 91 % FVIIa.

Consider B19, for which the “AT inhibition (kinh %)” value turned out to be 747% and the “TGT activity (% FVIIa)” value is 128 % FVIIa.

On to B20, for which the “AT inhibition (kinh %)” value was 26% and the “TGT activity (% FVIIa)” value was 88 % FVIIa.

For the next assay, the target named is T1, recombinant human activated Factor VII …. The assay is described as follows: cell-based or functional assay.
In the case of B21, the “AT inhibition (kinh %)” value stood at 105% and the “TGT activity (%% FVIIa)” value stood at 102%.

For the molecule B22, the “AT inhibition (kinh %)” value is 110% and the “TGT activity (%% FVIIa)” value is 100%.

The next assay concerns the target T2, recombinant human activated Factor VII …. The assay is described as follows: Bio-Layer Interferometry (Fortebio), antibody on anti-human tips, FVIIa 25-200 nM. On the procedure:
All steps were performed in running buffer (20 mM HEPES buffer (pH 7.4), 150 mM NaCl, 5 mM CaCl2, 0.03% Tween 20, 1 mg/ml IgG-free BSA) at […] Antibodies were captured on anti-human tips (AHC, Fortebio) for 3 min at a concentration of 10 ug/ml. This was followed by a 3 min incubation to establish a baseline. Following this, association was monitored for 3 min using four different concentrations of VIIa (25 nm, 50 nM, 100 nM, and 200 nM), followed by a 3 mi dissociation. Sensorgrams were analysed using Fortebio data analysis software.
Take B23: the Kd came out at 11 nM. Still for that read-out and setting: next, B24: 42000 nM; B25: 13 nM; B26: 1.8 nM.
